Test results from the Human Domainome abundance scans (Beltran et al. 2025).

B1: SWI/SNF complex subunit SMARCC1, residues 620 to 663; numbered along this chain, Q92922 (parent)
chain: GREWTEQETLLLLEALEMYKDDWNKVSEHVGSRTQDECILHFLR

Variants of: B1
Assay: abundance fitness (aPCA) (normalised: wild type 0, dead -1); higher = more abundant; growth selection in yeast, the domain comes from the species named
Details: Homo sapiens

Abundance fitness, by site and new letter:
E8: N -0.584 | T -0.651 | C -0.616 | Q -0.098 | I -0.746 | D -0.76 | S -1.01 | L -0.936 | V -1 | G -0.861 | F -0.702 | P -0.593 | A -0.808 | W -1.06 | H -0.54 | Y -1.21 | M -0.482
A15: F -0.616 | K -0.925 | P -1.19 | D -0.562 | G 0.03 | H -0.707 | L -0.926 | E -0.716
E6: C -0.069 | Y -0.178 | S -0.441 | W -0.155 | G -0.194 | F -0.265 | L -0.234 | P -0.264 | M 0.099 | V -0.227 | N -0.17 | D -0.164 | T -0.12 | K 0.181 | R -0.137 | A 0.071 | Q 0.212 | I -0.12
T5: P -0.572 | G -0.755 | Y -0.116 | A -0.363 | K 0.03 | R -0.241 | W -0.693 | V -0.461 | C -0.14 | L -0.174 | N -0.086 | Q -0.127 | D -0.069 | H -0.513 | M 0.11 | I -0.201 | E 0.081
Q7: L -0.578 | P -0.381 | T 0.075 | I 0.341 | R 0.206 | V -0.227 | G -0.052
L13: A 0.285 | V -0.126 | Y -0.229 | R 0.127 | I 0.044 | T 0.531 | Q -0.197 | D 0.01 | H -0.166 | S -0.259 | W -0.314
E14: T -0.18 | Y -0.428 | K -0.006 | C -0.684 | N -0.164 | P -1.15 | H -0.311 | D -0.177 | V -0.552 | Q -0.045 | G -0.27 | R -0.28 | L -0.549 | M -0.267 | S -0.27 | I -0.97 | A 0.007
L11: S 0.024 | C -0.521 | R -0.139 | G -0.154 | W -0.258 | V -0.064 | A -0.134 | K 0.021 | I -0.29 | P -0.58 | N -0.304 | F -0.096 | M 0.138 | E -0.281 | D -0.19 | T 0.016
T9: S -0.01 | K 0.158 | C -0.015 | R 0.252 | L -0.044 | E -0.037 | Q 0.319 | G -0.098 | A -0.085 | Y -0.022 | N -0.04 | P -0.449 | F 0.004 | I 0.264 | M 0.037 | D -0.075 | W -0.595 | H -0.023
W4: T -0.134 | V -0.147 | Y -0.23 | S -0.08
L12: E -0.129 | R -0.718 | H -0.413 | M -0.32 | C -0.401 | K -0.428 | V -0.341 | A -0.213 | P -0.709 | Q -0.372 | F 0.016 | S -0.651 | G 0.009 | T -0.602 | N -0.938 | D -0.259 | Y -0.103
L10: N -0.247 | F -0.008 | V -0.04 | E 0.082 | Y -0.407 | A -0.019 | Q 0.251 | C 0.243 | I -0.016 | H 0.084 | S 0.147 | R 0.158 | M -0.21 | K 0.176 | T 0.237 | P -0.287 | W -0.137
